Results taken from patent US20210196834A1.

Target: human SEZ6-His (soluble hSEZ6-his antigen) (human) (UniProt Q53EL9)
Assay: SPR, Biacore T200, human SEZ6-His captured on anti-His chip, Fab as analyte

Chain of UniProt Q53EL9 (Q53EL9 20-925): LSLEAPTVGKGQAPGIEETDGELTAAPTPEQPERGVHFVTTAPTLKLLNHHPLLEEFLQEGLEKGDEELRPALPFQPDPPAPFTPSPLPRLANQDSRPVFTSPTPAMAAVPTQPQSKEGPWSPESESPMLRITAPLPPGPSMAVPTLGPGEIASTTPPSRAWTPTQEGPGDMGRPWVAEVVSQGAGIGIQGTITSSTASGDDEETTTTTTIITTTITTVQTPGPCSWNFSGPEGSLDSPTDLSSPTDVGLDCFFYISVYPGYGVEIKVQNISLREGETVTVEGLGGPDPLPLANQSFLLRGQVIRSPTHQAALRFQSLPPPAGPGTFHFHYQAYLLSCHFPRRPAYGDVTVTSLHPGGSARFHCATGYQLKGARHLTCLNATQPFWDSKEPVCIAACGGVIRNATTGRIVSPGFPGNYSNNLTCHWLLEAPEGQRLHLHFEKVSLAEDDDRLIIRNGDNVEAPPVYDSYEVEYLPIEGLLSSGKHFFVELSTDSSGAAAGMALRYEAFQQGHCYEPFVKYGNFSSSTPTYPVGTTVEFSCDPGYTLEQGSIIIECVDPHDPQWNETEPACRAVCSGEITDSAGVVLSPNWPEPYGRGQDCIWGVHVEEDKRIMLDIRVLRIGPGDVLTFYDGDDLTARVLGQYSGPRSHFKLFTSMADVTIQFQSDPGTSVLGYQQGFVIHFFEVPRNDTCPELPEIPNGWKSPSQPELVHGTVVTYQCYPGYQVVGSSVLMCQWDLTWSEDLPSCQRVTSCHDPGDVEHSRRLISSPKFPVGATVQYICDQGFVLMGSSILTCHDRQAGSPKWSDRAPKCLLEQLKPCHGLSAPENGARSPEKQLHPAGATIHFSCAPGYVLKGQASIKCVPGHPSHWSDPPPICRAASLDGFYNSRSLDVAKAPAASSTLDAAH

Kd: 4.8 nM
koff: 0.006 s⁻¹
kon: 1.3e+06 M⁻¹ s⁻¹
B1: MutA (S60N) Fab (Fab construct of the hSEZ6-1.ss1 antibody with the S60N mutation) (Fab, V domains shown)
VH: EVQLVQSGAEVKKPGESLKISCKGSGYSFTSSWINWVRQMPGKGLEWMGRIYPGEGDTNYNGNFEGQVTISADKSISTAYLQWSSLKASDTAMYYCTRGLVMDYWGQGTLVTVSS
VL: EIVLTQSPATLSLSPGERATLSCRASQSVDYNGISYMHWYQQKPGQAPRLLIYAASNVQSGIPARFSGSGSGTDFTLTISSLEPEDFAVYYCQQSIEDPPTFGGGTKVEIK
